Laboratory results from US20040033228A1.

Target: TNF (UniProt P01375)
Assay: cell-based or functional assay

Sequence of UniProt P01375 (P01375 77-233 limits assumed): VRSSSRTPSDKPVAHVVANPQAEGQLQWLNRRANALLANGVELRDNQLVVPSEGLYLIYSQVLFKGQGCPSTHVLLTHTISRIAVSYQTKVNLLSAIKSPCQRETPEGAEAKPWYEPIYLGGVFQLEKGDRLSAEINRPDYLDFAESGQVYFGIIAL

In vitro TNF neutralization test; with 0.1% polysorbate 80; fast thaw -80° C. in water bath: 95.8 | In vitro TNF neutralization test; with 0.1% polysorbate 80; no freeze/thaw: 112 | In vitro TNF neutralization test; with 0.1% polysorbate 80; slow thaw -30° C. in refrigerator: 96.2 | In vitro TNF neutralization test; with 0.1% polysorbate 80; slow thaw -80° in refrigerator: 96.7 | In vitro TNF neutralization test; without 0.1% polysorbate 80; fast thaw -30° C. in water bath: 118 | In vitro TNF neutralization test; without 0.1% polysorbate 80; fast thaw -80° C. in water bath: 120 | In vitro TNF neutralization test; without 0.1% polysorbate 80; no freeze/thaw: 118 | In vitro TNF neutralization test; without 0.1% polysorbate 80; slow thaw -30° C. in refrigerator: 124 | In vitro TNF neutralization test; without 0.1% polysorbate 80; slow thaw -80° in refrigerator: 103
Substance: D2E7 antibody
